Experimental data reported in the supplement of paper PMC10724198.
± gives the standard deviation of the averaged measurements.

Tests used:
Saccharomyces cerevisiae [1] = test: protein stability index of tFT-peptide fusion (C-terminal peptide) (PSI (0-1 scale)); higher = more stable (slower turnover)
Method: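 MPS profiling in S. cerevisiae of the tFT-X12 degron library: putative degron peptides plus stable controls, 12 aa, fused to the C-terminus of a sfGFP-mCherry timer. Cells are FACS-sorted into 8 mCherry/sfGFP bins and deep-sequenced. PSI runs from 0 (unstable) to 1 (stable). Backgrounds are wild type, das1Δ and doa10Δ at 30 °C, and wild type, das1Δ, cdc34-1 and cdc53-1 at 37 °C; 2-3 technical replicates each.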

Saccharomyces cerevisiae [2] = test: as above; details: genetic background: wild type; temperature: 30 C
[3] = genetic background: cdc34-1, temperature: 37 C
[4] = genetic background: cdc53-1, temperature: 37 C
[5] = genetic background: das1 deletion, temperature: 30 C
[6] = genetic background: das1 deletion, temperature: 37 C
[7] = genetic background: doa10 deletion, temperature: 30 C
[8] = genetic background: wild type, temperature: 30 C
[9] = genetic background: wild type, temperature: 37 C
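Further: PSI is a weighted mean of sequencing reads over stability bins, variants kept only with over 10 reads, mCherry proximal and sfGFP distal, peptide attached via GGGS linker.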

| Sequence | protein stability index (Saccharomyces cerevisiae [1]; [3]) | protein stability index (Saccharomyces cerevisiae [1]; [4]) | protein stability index (Saccharomyces cerevisiae [1]; [5]) | protein stability index (Saccharomyces cerevisiae [1]; [6]) | protein stability index (Saccharomyces cerevisiae [1]; [7]) | protein stability index (Saccharomyces cerevisiae [1]; [8]) | protein stability index (Saccharomyces cerevisiae [1]; [9]) | protein stability index (Saccharomyces cerevisiae [2]) |
| --- | --- | --- | --- | --- | --- | --- | --- | --- |
| KRLRDFLVIMCS | 0.198 ± 0.024 | 0.2289 ± 0.0013 | 0.24 ± 0.03 | 0.358 ± 0.0079 | 0.112 ± 0.0067 | 0.118 ± 0.019 | 0.098 ± 0.02 | 0.196 ± 0.014 |
| KNKRQKNTIRKQ | 0.669 ± 0.017 | 0.682 ± 0.056 | 0.654 ± 0.034 | 0.757 ± 0.089 | 0.2745 ± 0.00035 | 0.346 ± 0.025 | 0.573 ± 0.0086 | 0.463 ± 0.016 |
| WGFLRVMVDIEL | 0.146 ± 0.014 | 0.223 ± 0.1 | 0.198 ± 0.024 | 0.32581 ± 9.3e-05 | 0.164 ± 0.0075 | 0.188 ± 0.023 | 0.303 ± 0.017 | 0.252 ± 0.016 |
| LCFVSTWVWSVG | 0.498 ± 0.055 | 0.5203 ± 0.0015 | 0.395 ± 0.032 | 0.58 ± 0.0085 | 0.368 ± 0.016 | 0.401 ± 0.01 | 0.569 ± 0.007 | 0.474 ± 0.037 |
| VIGSFVRVFGIM | 0.698 ± 0.024 | 0.751 ± 0.018 | 0.617 ± 0.017 | 0.728 ± 0.026 | 0.489 ± 0.041 | 0.506 ± 0.0097 | 0.6657 ± 0.00035 | 0.512 ± 0.12 |
| KCKIWFREVSMN | 0.658 ± 0.018 | 0.7475 ± 0.007 | 0.647 ± 0.015 | 0.729 ± 0.06 | 0.1748 ± 0.0015 | 0.216 ± 0.019 | 0.414 ± 0.027 | 0.32 ± 0.066 |
| VVIWGMLLCGLG | 0.447 ± 0.0096 | 0.502 ± 0.009 | 0.353 ± 0.029 | 0.539 ± 0.026 | 0.326 ± 0.015 | 0.348 ± 0.018 | 0.487 ± 0.016 | 0.44 ± 0.029 |
| HFSCLLIILGFC | 0.275 ± 0.01 | 0.395 ± 0.078 | 0.268 ± 0.04 | 0.448 ± 0.0081 | 0.216 ± 0.005 | 0.267 ± 0.023 | 0.459 ± 0.092 | 0.331 ± 0.026 |
| FLFVSVFHPALL | 0.6421 ± 0.0042 | 0.70858 ± 0.0003 | 0.593 ± 0.059 | 0.6911 ± 0.0062 | 0.3787 ± 0.0024 | 0.409 ± 0.019 | 0.601 ± 0.013 | – |
| PPPPPSARSPFR | 0.649 ± 0.043 | 0.726 ± 0.012 | 0.633 ± 0.027 | 0.7402 ± 0.0063 | 0.603 ± 0.03 | 0.602 ± 0.0097 | 0.695 ± 0.004 | – |
| GAVGGWGWVSFV | 0.683 ± 0.049 | 0.7583 ± 0.0075 | 0.603 ± 0.034 | 0.771 ± 0.01 | 0.3855 ± 0.0037 | 0.397 ± 0.0083 | 0.595 ± 0.092 | – |
| LSLCFGPFFYFP | 0.679 ± 0.072 | 0.7329 ± 0.0056 | 0.64 ± 0.029 | 0.711 ± 0.03 | 0.64 ± 0.042 | 0.6242 ± 0.0027 | 0.704 ± 0.046 | – |
| IMWAFFMFCSFL | 0.498 ± 0.067 | 0.53764 ± 0.00031 | 0.428 ± 0.057 | 0.5564 ± 0.0029 | 0.37 ± 0.0076 | 0.367 ± 0.026 | 0.481 ± 0.044 | – |
| DNTVWLRLVTSC | 0.32 ± 0.052 | 0.506 ± 0.011 | 0.402 ± 0.017 | 0.565 ± 0.013 | 0.0752 ± 0.013 | 0.0895 ± 0.015 | 0.0768 ± 0.016 | – |
| TFCVLLQFCVLV | 0.365 ± 0.039 | 0.398 ± 0.017 | 0.308 ± 0.028 | 0.426 ± 0.02 | 0.3058 ± 0.0007 | 0.315 ± 0.012 | 0.411 ± 0.0012 | – |
